The text below walks through data of the supplement of paper PMC9233669.

This sample holds only a part of the variants without activity.

The subject of data set [1] is biotinyl-Phe-oxazolone. In words: self-aminoacylation, catalytic enhancement (BFO) (fold over background); higher = more active; k-Seq, kA / k0A0; sequences stand for … in GGGAAUGGAUCCACAUCUACGAAUUC…UUCACUGCAGACUUGACGAAGCUG
In outline: (§1)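 Working in 50 μL HEPES/NaCl/KCl/MgCl2/CaCl2 buffer with 5% acetonitrile at pH 6.9–7.0, mutagenized RNA pools (0.43 μM; 21-nt variable region) were reacted with 2–1250 μM of each biotinyl-aminoacyl-oxazolone for 90 minutes at room temperature. Streptavidin capture followed, with quantification by triplicate qPCR and Illumina sequencing. Catalytic enhancement is reported as median kA over the uncatalyzed rate, the low-activity peak of a bimodal Gaussian fit to the data.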

Data set [2] concerns biotinyl-Ile-oxazolone. In words: self-aminoacylation, catalytic enhancement (BIO) (fold over background); higher = more active; k-Seq, kA / k0A0; sequences stand for … in GGGAAUGGAUCCACAUCUACGAAUUC…UUCACUGCAGACUUGACGAAGCUG
In outline:
as §1

The subject of data set [3] is biotinyl-Leu-oxazolone. In words: self-aminoacylation, catalytic enhancement (BLO) (fold over background); higher = more active; k-Seq, kA / k0A0; sequences stand for … in GGGAAUGGAUCCACAUCUACGAAUUC…UUCACUGCAGACUUGACGAAGCUG
In outline:
as §1

The test system of data set [4] is biotinyl-Trp-oxazolone. As to the kind of experiment: self-aminoacylation, catalytic enhancement (BWO) (fold over background); higher = more active; k-Seq, kA / k0A0; sequences stand for … in GGGAAUGGAUCCACAUCUACGAAUUC…UUCACUGCAGACUUGACGAAGCUG
In outline:
as §1

Data set [5] has as its system biotinyl-Val-oxazolone. As to the kind of experiment: self-aminoacylation, catalytic enhancement (BVO) (fold over background); higher = more active; k-Seq, kA / k0A0; sequences stand for … in GGGAAUGGAUCCACAUCUACGAAUUC…UUCACUGCAGACUUGACGAAGCUG
In outline:
as §1

In data set [6] the test system is biotinyl-Met-oxazolone. In words: self-aminoacylation, catalytic enhancement (BMO) (fold over background); higher = more active; k-Seq, kA / k0A0; sequences stand for … in GGGAAUGGAUCCACAUCUACGAAUUC…UUCACUGCAGACUUGACGAAGCUG
In outline: as §1

Turning to “AAGUUUGCUAUUUGUCGCAAG [Fam3.1 aminoacylation ribozyme variant]”, the self-aminoacylation in data set [1] came to 1.05; in data set [2], 1.04; in data set [3] it was 0.989; in data set [4], 1.2; in data set [5], 0.819; in data set [6], 0.936.
“AUUCACCUUGGUCAUGGGGUG [Fam2.2 aminoacylation ribozyme variant]”: the self-aminoacylation came out at 26.8 in data set [1]; 2.91 in data set [2]; 6.08 in data set [3]; 4.27 in data set [4]; 3.36 in data set [5]; 4.32 in data set [6].
On to “CCACACUUAAAGUAAUCGGUC [Fam1B.1 aminoacylation ribozyme variant]”, for which the self-aminoacylation in data set [1] came out at 0.772; in data set [2], 0.82; in data set [3], 0.744; in data set [4], 0.875; in data set [5] it was 0.836; in data set [6] it was 0.695.
Consider “AUUCACCUAGAUCAUCGGGCG [Fam2.2 aminoacylation ribozyme variant]”, for which the self-aminoacylation is 8.81 in data set [1]; 1.96 in data set [2]; 2.33 in data set [3]; 1.28 in data set [4]; 1.93 in data set [5]; 3.12 in data set [6].
For the sequence “CUACUUCGAACAAUCGGUUUG [Fam1A.1 aminoacylation ribozyme variant]”, the self-aminoacylation in data set [1] was found to be 0.591; in data set [2], 0.649; in data set [3], 0.526; in data set [4], 0.404; in data set [5] it was 0.717; in data set [6], 0.581.
On to “AAUUUUGCUAAUAGUGGCAAG [Fam3.1 aminoacylation ribozyme variant]”, for which the self-aminoacylation in data set [1] amounted to 0.836; in data set [2], 0.771; in data set [3], 0.633; in data set [4] it was 0.652; in data set [5], 0.632; in data set [6], 0.798.
On to “CAGUUUGCGAAUAGUCGCAAG [Fam3.1 aminoacylation ribozyme variant]”, for which the self-aminoacylation is 5.57 in data set [1]; 1.79 in data set [2]; 2.67 in data set [3]; 2 in data set [4]; 1.59 in data set [5]; 1.93 in data set [6].
Take “AUUACCCUGGUCAUCCAGUGU [Fam2.1 aminoacylation ribozyme variant]”: the self-aminoacylation is 7.23 in data set [1]; 1.95 in data set [2]; 3.15 in data set [3]; 3.1 in data set [4]; 1.81 in data set [5]; 3.14 in data set [6].
As to “AUUCACCAAGGUCAUCAGGUG [Fam2.2 aminoacylation ribozyme variant]”, the self-aminoacylation in data set [1] came to 3.44; in data set [2], 1.6; in data set [3] it was 2.25; in data set [4], 1.79; in data set [5], 1.37; in data set [6] it was 2.1.
Consider “CUAUACUUCAAGCAAUCGGUC [Fam1B.1 aminoacylation ribozyme variant]”, for which the self-aminoacylation in data set [1] came to 21.3; in data set [2] it was 0.782; in data set [3], 1.06; in data set [4] it was 9.69; in data set [5], 0.936; in data set [6], 0.837.
As to “AUUCACAUAGGUCAUCGUGUG [Fam2.2 aminoacylation ribozyme variant]”, the self-aminoacylation in data set [1] came out at 2.09; in data set [2] it was 0.867; in data set [3], 0.942; in data set [4], 0.867; in data set [5] it was 0.841; in data set [6], 0.835.
“AUUGCGCUGGUCAUCGAGUGA [Fam2.1 aminoacylation ribozyme variant]”: the self-aminoacylation in data set [1] was 25.1; in data set [2], 2.47; in data set [3], 4.57; in data set [4], 5.11; in data set [5], 2.62; in data set [6], 4.28.
As for “AAGUUUGCGAAUAGUCGCCAG [Fam3.1 aminoacylation ribozyme variant]”, the self-aminoacylation in data set [1] amounted to 9.03; in data set [2], 1.74; in data set [3], 1.29; in data set [4], 1.62; in data set [5], 1.78; in data set [6], 1.8.
For the sequence “AUUGCCCUGAUCAUCGAGUGA [Fam2.1 aminoacylation ribozyme variant]”, the self-aminoacylation in data set [1] was 26.6; in data set [2], 3.73; in data set [3] it was 7.17; in data set [4], 8.98; in data set [5] it was 4.01; in data set [6] it was 7.51.
On to “AUUAGCCUGGUUAUCGAGUGA [Fam2.1 aminoacylation ribozyme variant]”, for which the self-aminoacylation in data set [1] stood at 74.4; in data set [2] it was 5.67; in data set [3], 12.2; in data set [4], 13.7; in data set [5], 5.37; in data set [6], 11.3.
For “CCACACUUGCAGCAAUCGGUC [Fam1B.1 aminoacylation ribozyme variant]”, the self-aminoacylation stood at 1.07 in data set [1]; 1.63 in data set [2]; 1.33 in data set [3]; 1.23 in data set [4]; 1.64 in data set [5]; 1.2 in data set [6].
With “AACUUUGCUAAUAGUCGCAGG [Fam3.1 aminoacylation ribozyme variant]”, the self-aminoacylation is 14.1 in data set [1]; 2.29 in data set [2]; 2.75 in data set [3]; 3.48 in data set [4]; 2.29 in data set [5]; 3.29 in data set [6].
On to “CUUCACCUUGGUCAUCGGGUG [Fam2.2 aminoacylation ribozyme variant]”, for which the self-aminoacylation amounted to 45.5 in data set [1]; 3.13 in data set [2]; 5.93 in data set [3]; 5.5 in data set [4]; 4.27 in data set [5]; 5.39 in data set [6].
For “AUUACCCUGGGCAUCGAGAGA [Fam2.1 aminoacylation ribozyme variant]”, the self-aminoacylation was 0.489 in data set [1]; 0.802 in data set [2]; 0.749 in data set [3]; 0.642 in data set [4]; 0.74 in data set [5]; 0.914 in data set [6].
With “CCAGACUACAAGCAAUCGGUC [Fam1B.1 aminoacylation ribozyme variant]”, the self-aminoacylation in data set [1] turned out to be 1.07; in data set [2], 1.26; in data set [3] it was 1.17; in data set [4] it was 1.35; in data set [5] it was 1.42; in data set [6], 1.16.
Take “AUUCCACUGGUCAUCGAGUGA [Fam2.1 aminoacylation ribozyme variant]”: the self-aminoacylation in data set [1] was determined as 28.1; in data set [2] it was 3.72; in data set [3] it was 6.67; in data set [4], 7.09; in data set [5] it was 3.82; in data set [6], 5.86.
On to “UUUCACCUCGGUCAUCGGGUG [Fam2.2 aminoacylation ribozyme variant]”, for which the self-aminoacylation is 38.3 in data set [1]; 3.61 in data set [2]; 5.28 in data set [3]; 6.19 in data set [4]; 4.79 in data set [5]; 3.79 in data set [6].
For the sequence “CCACACUUCAAGCAUUCGGGC [Fam1B.1 aminoacylation ribozyme variant]”, the self-aminoacylation is 1.51 in data set [1]; 2.54 in data set [2]; 1.79 in data set [3]; 2.99 in data set [4]; 2.83 in data set [5]; 2.37 in data set [6].
